According to paper PMC4439124, “Hairy/Enhancer-of-Split MEGANE and Proneural MASH1 Factors Cooperate Synergistically in Midbrain GABAergic Neurogenesis” (PLoS ONE, 2015):

Target: T1, MGN (MEGANE), yeast two-hybrid fusion (mouse, UniProt Q7TS99 1-240)
T1 construct: The two Gal4 domains are alternatives: one fusion as bait (BD), another as prey (AD); also called Helt; BD-MGN; source: yeast two-hybrid fusion
T1 sequence (looked up): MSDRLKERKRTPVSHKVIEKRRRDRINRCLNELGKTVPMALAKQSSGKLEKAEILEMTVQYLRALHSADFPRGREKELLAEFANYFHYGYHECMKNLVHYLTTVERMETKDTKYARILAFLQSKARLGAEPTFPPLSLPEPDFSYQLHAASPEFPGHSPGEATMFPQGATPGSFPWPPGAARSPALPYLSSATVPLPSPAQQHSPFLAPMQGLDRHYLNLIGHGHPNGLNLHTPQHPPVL
Experiment: two-hybrid; quantitative β-galactosidase assay on liquid cultures (X-gal; in parallel ONPG, absorbance at 420 nm), five independent transformants per pair, normalised against cell density and dilution
Details: partners not purified

B1: MASH1, yeast two-hybrid fusion (natural protein, mouse, UniProt Q02067 1-231, looked up)
chain: MESSGKMESGAGQQPQPPQPFLPPAACFFATAAAAAAAAAAAAQSAQQQQPQAPPQQAPQLSPVADSQPSGGGHKSAAKQVKRQRSSSPELMRCKRRLNFSGFGYSLPQQQPAAVARRNERERNRVKLVNLGFATLREHVPNGAANKKMSKVETLRSAVEYIRALQQLLDEHDAVSAAFQAGVLSPTISPNYSNDLNSMAGSPVSSYSSDEGSYDPLSPEEQELLDFTNWF
notes: The two Gal4 domains are alternatives: one fusion as bait (BD), another as prey (AD); also called Ascl1; MASH1-AD; source: yeast two-hybrid fusion
Which “fold β-galactosidase activity (strength of interaction) over the MASH1/MASH1 homodimer” value does the source give for B1 here?
Its value is 4 fold.

What about the “fold β-galactosidase activity (strength of interaction) over the MGN/MGN homodimer” value of the same binder?
The value was 4.4 fold.
